For 4 variants, ratio to parent results are on record in paper PMC11589140 (2024).

B1: HA-tagged RUNX1T1, wild type [human] / FLAG-tagged Sin3A [not stated] (parent complex)
chain 1: MISVKRNTWRALSLVIGDCRKKGNFEYCQDRTEKHSTMPDSPVDVKTQSRLTPPTMPPPPTTQGAPRTSSFTPTTLTNGTSHSPTALNGAPSPPNGFSNGPSSSSSSSLANQQLPPACGARQLSKLKRFLTTLQQFGNDISPEIGERVRTLVLGLVNSTLTIEEFHSKLQEATNFPLRPFVIPFLKANLPLLQRELLHCARLAKQNPAQYLAQHEQLLLDASTTSPVDSSELLLDVNENGKRRTPDRTKENGFDREPLHSEHPSKRPCTISPGQRYSPNNGLSYQPNGLPHPTPPPPQHYRLDDMAIAHHYRDSYRHPSHRDLRDRNRPMGLHGTRQEEMIDHRLTDREWAEEWKHLDHLLNCIMDMVEKTRRSLTVLRRCQEADREELNYWIRRYSDAEDLKKGGGSSSSHSRQQSPVNPDPVALDAHREFLHRPASGYVPEEIWKKAEEAVNEVKRQAMTELQKAVSEAERKAHDMITTERAKMERTVAEAKRQAAEDALAVINQQEDSSESCWNCGRKASETCSGCNTARYCGSFCQHKDWEKHHHICGQTLQAQQQGDTPAVSSSVTPNSGAGSPMDTPPAATPRSTTPGTPSTIETTPR
chain 2: MKRRLDDQESPVYAAQQRRIPGSTEAFPHQHRVLAPAPPVYEAVSETMQSATGIQYSVTPSYQVSAMPQSSGSHGPAIAAVHSSHHHPTAVQPHGGQVVQSHAHPAPPVAPVQGQQQFQRLKVEDALSYLDQVKLQFGSQPQVYNDFLDIMKEFKSQSIDTPGVISRVSQLFKGHPDLIMGFNTFLPPGYKIEVQTNDMVNVTTPGQVHQIPTHGIQPQPQPPPQHPSQPSAQSAPAPAQPAPQPPPAKVSKPSQLQAHTPASQQTPPLPPYASPRSPPVQPHTPVTISLGTAPSLQNNQPVEFNHAINYVNKIKNRFQGQPDIYKAFLEILHTYQKEQRNAKEAGGNYTPALTEQEVYAQVARLFKNQEDLLSEFGQFLPDANSSVLLSKTTAEKVDSVRNDHGGTVKKPQLNNKPQRPSQNGCQIRRHPTGTTPPVKKKPKLLNLKDSSMADASKHGGGTESLFFDKVRKALRSAEAYENFLRCLVIFNQEVISRAELVQLVSPFLGKFPELFNWFKNFLGYKESVHLETYPKERATEGIAMEIDYASCKRLGSSYRALPKSYQQPKCTGRTPLCKEVLNDTWVSFPSWSEDSTFVSSKKTQYEEHIYRCEDERFELDVVLETNLATIRVLEAIQKKLSRLSAEEQAKFRLDNTLGGTSEVIHRKALQRIYADKAADIIDGLRKNPSIAVPIVLKRLKMKEEEWREAQRGFNKVWREQNEKYYLKSLDHQGINFKQNDTKVLRSKSLLNEIESIYDERQEQATEENAGVPVGPHLSLAYEDKQILEDAAALIIHHVKRQTGIQKEDKYKIKQIMHHFIPDLLFAQRGDLSDVEEEEEEEMDVDEATGAVKKHNGVGGSPPKSKLLFSNTAAQKLRGMDEVYNLFYVNNNWYIFMRLHQILCLRLLRICSQAERQIEEENREREWEREVLGIKRDKSDSPAIQLRLKEPMDVDVEDYYPAFLDMVRSLLDGNIDSSQYEDSLREMFTIHAYIAFTMDKLIQSIVRQLQHIVSDEICVQVTDLYLAENNNGATGGQLNTQNSRSLLESTYQRKAEQLMSDENCFKLMFIQSQGQVQLTIELLDTEEENSDDPVEAERWSDYVERYMNSDTTSPELREHLAQKPVFLPRNLRRIRKCQRGREQQEKEGKEGNSKKTMENVDSLDKLECRFKLNSYKMVYVIKSEDYMYRRTALLRAHQSHERVSKRLHQRFQAWVDKWTKEHVPREMAAETSKWLMGEGLEGLVPCTTTCDTETLHFVSINKYRVKYGTVFKAP
B2: HA-tagged RUNX1T1, wild type [human] / FLAG-tagged GFI-1 [not stated] (parent complex)
chain 1: B1 chain 1
chain 2: not shown

The first test covers variants of B1. Kind of test: co-immunoprecipitation (IP: HA) with densitometry quantification; HA-tagged RUNX1T1 and FLAG-tagged interactor co-expressed in HEK-293 cells; parent: 1; read off a plot.
As to chain 1 E163K, the ratio to parent is about 0.57.

On to chain 1 E146K, for which the ratio to parent is about 2.6.

The variants in a further test derive from B2. Described as above.
chain 1 E146K: the ratio to parent is about 1.6.

Turning to chain 1 E163K, the ratio to parent was about 1.6.
